B1: CPEB3 Ribozyme (parent)
chain: UAACAGGGGGCCACAGCAGAAGCGUUCACGUCGCAGCCCCUGUCAGAUUCUGGUGAAUCUGCGAAUUCUGCUGUAUAUCUC

Variants of B1 are the subject of this data set. The data set is described as follows: self-cleavage, relative activity (ratio to wild type); higher = more cleavage; in vitro, sequencing. In a few lines: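 For each CPEB3 ribozyme variant, relative activity is its cleaved/total read fraction divided by the unmutated ribozyme's. Barcoded error-prone PCR libraries were transcribed by T7 RNA polymerase (5 hours, 37°C) and held in DNase I for 15 min before an EDTA stop, with cleavage occurring throughout. Template-switching reverse transcription and Illumina sequencing were used to read the RNAs. A 5-read minimum applied, and results are the mean of three batches.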
Regarding A45G U54A, the self-cleavage was 0.85.

Turning to A45G U54G, the self-cleavage amounted to 0.56.

Regarding A45G U54C, the self-cleavage came out at 0.88.

On to G46A U49A, for which the self-cleavage stood at 0.33.

Take G46A U49C: the self-cleavage was 0.11.

On to C44U C79U, for which the self-cleavage was 0.16.

On to A45G C62G, for which the self-cleavage was 0.25.

On to A45G C62A, for which the self-cleavage amounted to 0.45.

Turning to A45G C62U, the self-cleavage came to 0.22.

Regarding A45G G73A, the self-cleavage is 1.16.

A45G G73C: the self-cleavage came out at 0.69.

Regarding A45G G73U, the self-cleavage turned out to be 1.29.

For the variant A45U G70A, the self-cleavage was 0.29.

As for A45C U67C, the self-cleavage turned out to be 0.15.

With C44U U74C, the self-cleavage stood at 0.6.

As to G46C U51A, the self-cleavage turned out to be 0.25.

In the case of A45G A57U, the self-cleavage is 0.43.

In the case of A45G A57G, the self-cleavage came to 0.66.

On to A45G A57C, for which the self-cleavage was determined as 0.24.

A45G G63A: the self-cleavage was determined as 0.48.

On to A45G G63U, for which the self-cleavage is 0.74.

Turning to A45G U69A, the self-cleavage was 0.42.

Take A45G U69G: the self-cleavage was 0.32.

Take A45G U69C: the self-cleavage amounted to 0.38.

For the variant C44U U54A, the self-cleavage was 0.36.

In the case of C44U U54C, the self-cleavage worked out at 0.32.

C44A U80C: the self-cleavage was 0.41.

Turning to C44U G52U, the self-cleavage came out at 0.46.

As for A45C U76A, the self-cleavage stood at 0.5.

As for G46A A56G, the self-cleavage turned out to be 0.25.

For the variant G46C U49A, the self-cleavage is 0.04.

For G46C A56U, the self-cleavage came out at 0.13.

Regarding C44G A77G, the self-cleavage worked out at 0.62.

As to A45U U67A, the self-cleavage was 0.24.

For A45U U67G, the self-cleavage turned out to be 0.17.

Take A45U U67C: the self-cleavage worked out at 0.27.

Take C44U U48C: the self-cleavage was found to be 0.44.

With A45G G70U, the self-cleavage is 0.33.

Turning to A45G G70A, the self-cleavage was determined as 0.42.

Consider A45G U51C, for which the self-cleavage is 0.7.

As to A45G U51A, the self-cleavage was found to be 0.74.

For A45G U51G, the self-cleavage was 0.64.

Consider G46A U48C, for which the self-cleavage turned out to be 0.26.

For C44A U60C, the self-cleavage was 0.17.

As for A45U A57C, the self-cleavage was 0.35.

With A45U A57U, the self-cleavage came out at 0.33.

For the variant A45U A57G, the self-cleavage was determined as 0.31.

As to A45C U66C, the self-cleavage worked out at 0.31.

For G46A A64G, the self-cleavage turned out to be 0.19.

On to G46A A64U, for which the self-cleavage was 0.08.

As for C44U G61C, the self-cleavage is 0.2.

In the case of C44U U51C, the self-cleavage is 0.1.

Take C44U U51A: the self-cleavage stood at 0.35.

Turning to C44A U48C, the self-cleavage was determined as 0.32.

On to C44A U54C, for which the self-cleavage turned out to be 0.36.

Turning to C44A U54A, the self-cleavage came out at 0.59.

For C44U A65G, the self-cleavage stood at 0.13.

With A45G A77C, the self-cleavage was found to be 0.48.

For the variant A45G A77U, the self-cleavage was determined as 0.9.

For A45G A77G, the self-cleavage amounted to 0.87.

Consider A45U G46A, for which the self-cleavage was determined as 0.41.

For A45G G55C, the self-cleavage was 0.67.

In the case of A45G G55U, the self-cleavage worked out at 0.4.

On to A45G G55A, for which the self-cleavage was determined as 0.43.

In the case of C44U A64G, the self-cleavage worked out at 0.21.

C44U A64U: the self-cleavage turned out to be 0.18.

With C44U A47G, the self-cleavage worked out at 0.35.

In the case of A45G G52A, the self-cleavage is 0.94.

Take A45G G52C: the self-cleavage is 0.91.

For A45G G52U, the self-cleavage was 0.94.

G46A A47C: the self-cleavage is 0.17.

For G46A A47U, the self-cleavage amounted to 0.24.

In the case of A45U C62A, the self-cleavage is 0.17.

A45U C62G: the self-cleavage came to 0.44.

In the case of A45U C62U, the self-cleavage is 0.31.

For A45G G61C, the self-cleavage stood at 0.23.

For A45G G61A, the self-cleavage was 0.82.

For the variant G46A G63C, the self-cleavage stood at 0.62.

Regarding A45C U58C, the self-cleavage is 0.33.

As for A45G A65G, the self-cleavage came out at 0.35.

With A45G A65U, the self-cleavage worked out at 0.27.

Regarding A45G A65C, the self-cleavage was 0.24.

With A45G U49A, the self-cleavage was 0.42.

Consider A45G U49G, for which the self-cleavage came out at 0.1.

As for A45G U49C, the self-cleavage came out at 0.27.

G46A G73A: the self-cleavage was 0.99.

For the variant C44A U78A, the self-cleavage amounted to 0.49.

Turning to C44A U78C, the self-cleavage turned out to be 0.38.

Regarding A45G U67C, the self-cleavage came out at 0.34.

For A45G U67A, the self-cleavage came out at 0.38.

As for C44G A65U, the self-cleavage is 0.1.

Turning to C44G C68A, the self-cleavage is 0.3.

Turning to G46A U66C, the self-cleavage is 0.25.

For the variant A45U, the self-cleavage came to 0.51.

Regarding A45G, the self-cleavage is 0.85.

A45C: the self-cleavage worked out at 0.38.

C44A U74C: the self-cleavage was 0.63.

Turning to C44U U69C, the self-cleavage amounted to 0.17.

Consider C44U U69A, for which the self-cleavage amounted to 0.13.

As to A45U G61A, the self-cleavage came out at 0.46.

C44U A77U: the self-cleavage stood at 0.22.

Turning to A45U U51C, the self-cleavage was found to be 0.48.

Take A45U U51G: the self-cleavage was 0.46.

Regarding A45U U51A, the self-cleavage came to 0.33.

For A45U U80C, the self-cleavage is 0.62.

Regarding C44A U69C, the self-cleavage stood at 0.17.

As for C44A U69G, the self-cleavage came to 0.13.

Consider G46A U60A, for which the self-cleavage stood at 0.5.

For G46A U60C, the self-cleavage came out at 0.14.

Regarding A45C A77G, the self-cleavage came out at 0.25.

As for A45C A77U, the self-cleavage is 0.39.

A45U A56C: the self-cleavage was found to be 0.28.

A45U A56U: the self-cleavage amounted to 0.23.

For A45U A56G, the self-cleavage was found to be 0.27.

Take A45C A47G: the self-cleavage is 0.17.

Regarding C44U C62A, the self-cleavage came out at 0.14.

For A45U A64G, the self-cleavage was determined as 0.33.

For the variant A45U A64U, the self-cleavage came to 0.27.

For the variant A45C U72C, the self-cleavage is 0.49.

For the variant A45C U72A, the self-cleavage stood at 0.38.

In the case of A45G C71G, the self-cleavage was 0.3.

For the variant A45G C71U, the self-cleavage is 0.65.

Take G46C A47G: the self-cleavage came out at 0.26.

Regarding A45U U48C, the self-cleavage was 0.34.

For A45U U48A, the self-cleavage worked out at 0.15.

As to A45C C59U, the self-cleavage turned out to be 0.22.

For the variant A45G A64G, the self-cleavage came to 0.65.

In the case of A45G A64U, the self-cleavage is 0.3.

For the variant A45C C81U, the self-cleavage stood at 0.45.

On to A45C U48C, for which the self-cleavage worked out at 0.4.

Regarding A45G U66A, the self-cleavage came to 0.41.

Regarding A45G U66C, the self-cleavage turned out to be 0.34.

For the variant G46A U54C, the self-cleavage turned out to be 0.06.

Regarding A45C U49C, the self-cleavage came to 0.11.

Regarding A45U G63A, the self-cleavage worked out at 0.54.

For A45U G63C, the self-cleavage was 0.66.

As to A45U G63U, the self-cleavage came to 0.46.

As to A45G U72A, the self-cleavage is 0.62.

For A45G U72C, the self-cleavage was found to be 0.98.

On to A45C A65U, for which the self-cleavage was 0.12.

On to A45C A65G, for which the self-cleavage turned out to be 0.42.

Regarding A45G A56U, the self-cleavage came to 0.4.

Turning to A45G A56C, the self-cleavage turned out to be 0.39.

On to A45G A56G, for which the self-cleavage worked out at 0.6.

For the variant A45G C59G, the self-cleavage worked out at 0.2.

As to A45G C59U, the self-cleavage was determined as 0.62.

As for A45G C59A, the self-cleavage worked out at 0.63.

As to G46A A57G, the self-cleavage amounted to 0.16.

Regarding A45U A77U, the self-cleavage is 0.55.

Regarding A45U A77G, the self-cleavage came to 0.52.

For the variant A45C A56C, the self-cleavage turned out to be 0.42.

For the variant A45C A56U, the self-cleavage was found to be 0.25.

As for A45C A56G, the self-cleavage turned out to be 0.26.

With A45U U74C, the self-cleavage worked out at 0.87.

On to A45U U74G, for which the self-cleavage is 1.09.

Turning to A45U U74A, the self-cleavage was found to be 1.03.

Turning to A45C U54C, the self-cleavage turned out to be 0.4.

As to A45C U54A, the self-cleavage worked out at 0.45.

With C44U A56G, the self-cleavage was found to be 0.18.

Consider A45U U76C, for which the self-cleavage was 0.49.

With A45U U76A, the self-cleavage amounted to 0.52.

Take A45G A47G: the self-cleavage came out at 0.46.

On to A45G A47U, for which the self-cleavage stood at 0.28.

A45C U80A: the self-cleavage amounted to 0.48.

In the case of A45C U80C, the self-cleavage was 0.4.

C44G U48C: the self-cleavage was 0.1.

Turning to A45C C68U, the self-cleavage was 0.28.

These data come from the RNAGym collection of RNA variant scans (doi:10.1093/nar/gkz1192).
